Assay results taken from PMC8280646.
Like-named read-outs stand apart in the source and are kept apart here.

Target: His-tagged hACE2 protein (human) (UniProt Q9BYF1)
Assay: SPR

Sequence of His-tagged hACE2 protein (human) (Q9BYF1 18-740): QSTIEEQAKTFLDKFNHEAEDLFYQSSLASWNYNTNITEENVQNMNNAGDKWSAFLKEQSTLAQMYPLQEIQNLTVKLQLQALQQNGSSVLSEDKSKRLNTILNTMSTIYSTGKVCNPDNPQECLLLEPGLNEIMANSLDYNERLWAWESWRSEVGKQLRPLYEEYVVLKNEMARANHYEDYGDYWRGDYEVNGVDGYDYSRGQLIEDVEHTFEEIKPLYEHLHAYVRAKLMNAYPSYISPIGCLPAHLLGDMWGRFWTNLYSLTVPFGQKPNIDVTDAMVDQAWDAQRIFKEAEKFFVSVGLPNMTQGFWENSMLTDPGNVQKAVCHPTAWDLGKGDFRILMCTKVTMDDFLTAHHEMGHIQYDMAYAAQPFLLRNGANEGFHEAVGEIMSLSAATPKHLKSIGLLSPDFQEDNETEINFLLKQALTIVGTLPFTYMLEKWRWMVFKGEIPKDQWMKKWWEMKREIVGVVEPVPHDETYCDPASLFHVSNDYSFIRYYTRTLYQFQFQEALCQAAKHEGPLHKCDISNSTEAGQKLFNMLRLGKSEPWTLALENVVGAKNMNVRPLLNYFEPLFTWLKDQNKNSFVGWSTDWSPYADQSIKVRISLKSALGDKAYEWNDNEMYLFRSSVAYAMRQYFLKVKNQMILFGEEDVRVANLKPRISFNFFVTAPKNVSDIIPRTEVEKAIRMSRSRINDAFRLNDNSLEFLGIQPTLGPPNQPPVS

Row | Substance | Kd [nM] | Kd (Fc fusion) [nM]
1 | Human IFNα-RBD-Fc | 12.3 | 
2 | RBD | 7.98 | 
3 | RBD-Fc | 11.5 | 
4 | mouse IFNα-Pan-RBD-Fc fusion protein (I-P-R-F) (from UniProt P0DTC2 319-541) |  | 11
